These results are taken from publication PMC13385800 (2026).

B1: TBLR1-LgBiT wild type [not stated] / ANKRD11-SmBiT [not stated] (parent complex)
chain 1: MSISSDEVNFLVYRYLQESGFSHSAFTFGIESHISQSNINGALVPPAALISIIQKGLQYVEAEVSINEDGTLFDGRPIESLSLIDAVMPDVVQTRQQAYRDKLAQQQAAAAAAAAAAASQQGSAKNGENTANGEENGAHTIANNHTDMMEVDGDVEIPPNKAVVLRGHESEVFICAWNPVSDLLASGSGDSTARIWNLSENSTSGSTQLVLRHCIREGGQDVPSNKDVTSLDWNSEGTLLATGSYDGFARIWTKDGNLASTLGQHKGPIFALKWNKKGNFILSAGVDKTTIIWDAHTGEAKQQFPFHSAPALDVDWQSNNTFASCSTDMCIHVCKLGQDRPIKTFQGHTNEVNAIKWDPTGNLLASCSDDMTLKIWSMKQDNCVHDLQAHNKEIYTIKWSPTGPGTNNPNANLMLASASFDSTVRLWDVDRGICIHTLTKHQEPVYSVAFSPDGRYLASGSFDKCVHIWNTQTGALVHSYRGTGGIFEVCWNAAGDKVGASASDGSVCVLDLRK
chain 2: MPKGGCPKAPQQEELPLSSDMVEKQTGKKDKDKVSLTKTPKLERGDGGKEVRERASKRKLPFTAGANGEQKDSDTEKQGPERKRIKKEPVTRKAGLLFGMGLSGIRAGYPLSERQQVALLMQMTAEESANSPVDTTPKHPSQSTVCQKGTPNSASKTKDKVNKRNERGETRLHRAAIRGDARRIKELISEGADVNVKDFAGWTALHEACNRGYYDVAKQLLAAGAEVNTKGLDDDTPLHDAANNGHYKVVKLLLRYGGNPQQSNRKGETPLKVANSPTMVNLLLGKGTYTSSEESSTESSEEEDAPSFAPSSSVDGNNTDSEFEKGLKHKAKNPEPQKATAPVKDEYEFDEDDEQDRVPPVDDKHLLKKDYRKETKSNSFISIPKMEVKSYTKNNTIAPKKASHRILSDTSDEEDASVTVGTGEKLRLSAHTILPGSKTREPSNAKQQKEKNKVKKKRKKETKGREVRFGKRSDKFCSSESESESSESGEDDRDSLGSSGCLKGSPLVLKDPSLFSSLSASSTSSHGSSAAQKQNPSHTDQHTKHWRTDNWKTISSPAWSEVSSLSDSTRTRLTSESDYSSEGSSVESLKPVRKRQEHRKRASLSEKKSPFLSSAEGAVPKLDKEGKVVKKHKTKHKHKNKEKGQCSISQELKLKSFTYEYEDSKQKSDKAILLENDLSTENKLKVLKHDRDHFKKEEKLSKMKLEEKEWLFKDEKSLKRIKDTNKDISRSFREEKDRSNKAEKERSLKEKSPKEEKLRLYKEERKKKSKDRPSKLEKKNDLKEDKISKEKEKIFKEDKEKLKKEKVYREDSAFDEYCNKNQFLENEDTKFSLSDDQRDRWFSDLSDSSFDFKGEDSWDSPVTDYRDMKSDSVAKLILETVKEDSKERRRDSRAREKRDYREPFFRKKDRDYLDKNSEKRKEQTEKHKSVPGYLSEKDKKRRESAEAGRDRKDALESCKERRDGRAKPEEAHREELKECGCESGFKDKSDGDFGKGLEPWERHHPAREKEKKDGPDKERKEKTKPERYKEKSSDKDKSEKSILEKCQKDKEFDKCFKEKKDTKEKHKDTHGKDKERKASLDQGKEKKEKAFPGIISEDFSEKKDDKKGKEKSWYIADIFTDESEDDRDSCMGSGFKMGEASDLPRTDGLQEKEEGREAYASDRHRKSSDKQHPERQKDKEPRDRRKDRGAADAGRDKKEKVFEKHKEKKDKESTEKYKDRKDRASVDSTQDKKNKQKLPEKAEKKHAAEDKAKSKHKEKSDKEHSKERKSSRSADAEKSLLEKLEEEALHEYREDSNDKISEVSSDSFTDRGQEPGLTAFLEVSFTEPPGDDKPRESACLPEKLKEKERHRHSSSSSKKSHDRERAKKEKAEKKEKGEDYKEGGSRKDSGQYEKDFLEADAYGVSYNMKADIEDELDKTIELFSTEKKDKNDSEREPSKKIEKELKPYGSSAINILKEKKKREKHREKWRDEKERHRDRHADGLLRHHRDELLRHHRDEQKPATRDKDSPPRVLKDKSRDEGPRLGDAKLKEKFKDGAEKEKGDPVKMSNGNDKVAPSKDPGKKDARPREKLLGDGDLMMTSFERMLSQKDLEIEERHKRHKERMKQMEKLRHRSGDPKLKEKAKPADDGRKKGLDIPAKKPPGLDPPFKDKKLKESTPIPPAAENKLHPASGADSKDWLAGPHMKEVLPASPRPDQSRPTGVPTPTSVLSCPSYEEVMHTPRTPSCSADDYADLVFDCADSQHSTPVPTAPTSACSPSFFDRFSVASSGLSENASQAPARPLSTNLYRSVSVDIRRTPEEEFSVGDKLFRQQSVPAASSYDSPMPPSMEDRAPLPPVPAEKFACLSPGYYSPDYGLPSPKVDALHCPPAAVVTVTPSPEGVFSSLQAKPSPSPRAELLVPSLEGALPPDLDTSEDQQATAAIIPPEPSYLEPLDEGPFSAVITEEPVEWAHPSEQALASSLIGGTSENPVSWPVGSDLLLKSPQRFPESPKRFCPADPLHSAAPGPFSASEAPYPAPPASPAPYALPVAEPGLEDVKDGVDAVPAAISTSEAAPYAPPSGLESFFSNCKSLPEAPLDVAPEPACVAAVAQVEALGPLENSFLDGSRGLSHLGQVEPVPWADAFAGPEDDLDLGPFSLPELPLQTKDAADGEAEPVEESLAPPEEMPPGAPGVINGGDVSTVVAEEPPALPPDQASTRLPAELEPEPSGEPKLDVALEAAVEAETVPEERARGDPDSSVEPAPVPPEQRPLGSGDQGAEAEGPPAASLCAPDGPAPNTVAQAQAADGAGPEDDTEASRAAAPAEGPPGGIQPEAAEPKPTAEAPKAPRVEEIPQRMTRNRAQMLANQSKQGPPPSEKECAPTPAPVTRAKARGSEDDDAQAQHPRKRRFQRSTQQLQQQLNTSTQQTREVIQQTLAAIVDAIKLDAIEPYHSDRANPYFEYLQIRKKIEEKRKILCCITPQAPQCYAEYVTYTGSYLLDGKPLSKLHIPVIAPPPSLAEPLKELFRQQEAVRGKLRLQHSIEREKLIVSCEQEILRVHCRAARTIANQAVPFSACTMLLDSEVYNMPLESQGDENKSVRDRFNARQFISWLQDVDDKYDRMKTCLLMRQQHEAAALNAVQRMEWQLKVQELDPAGHKSLCVNEVPSFYVPMVDVNDDFVLLPA

In one assay the parent is B1. The assay is described as follows: NanoLuc complementation assay; n = 3–5 independent transfections per TBLR1 mutant; read off a plot.
Consider chain 1 MSISSDEVNFLVYRYLQESGFSHSAFTFDIESHISQSNINGALVPPAALISIIQKGLQYVEAEVSINEDGTLFDGRPIESLSLIDAVMPDVVQTRQQAYRDKLAQQQAAAAAAAAAAASQQGSAKNGENTANGEENGAHTIANNHTDMMEVDGDVEIPPNKAVVLRGHESEVFICAWNPVSDLLASGSGDSTARIWNLSENSTSGSTQLVLRHCIREGGQDVPSNKDVTSLDWNSEGTLLATGSYDGFARIWTKDGNLASTLGQHKGPIFALKWNKKGNFILSAGVDKTTIIWDAHTGEAKQQFPFHSAPALDVDWQSNNTFASCSTDMCIHVCKLGQDRPIKTFQGHTNEVNAIKWDPTGNLLASCSDDMTLKIWSMKQDNCVHDLQAHNKEIYTIKWSPTGPGTNNPNANLMLASASFDSTVRLWDVDRGICIHTLTKHQEPVYSVAFSPDGRYLASGSFDKCVHIWNTQTGALVHSYRGTGGIFEVCWNAAGDKVGASASDGSVCVLDLRK [chain 1 G29D], for which the ratio to parent is around 0.06.
Same read-out and setting: in the case of chain 1 MSISSDEVNFLVYRYLQESGFSHSAFTFGIESHISQSNINGALVPPAALISIIQKGLQYVEAEVSINEDDTLFDGRPIESLSLIDAVMPDVVQTRQQAYRDKLAQQQAAAAAAAAAAASQQGSAKNGENTANGEENGAHTIANNHTDMMEVDGDVEIPPNKAVVLRGHESEVFICAWNPVSDLLASGSGDSTARIWNLSENSTSGSTQLVLRHCIREGGQDVPSNKDVTSLDWNSEGTLLATGSYDGFARIWTKDGNLASTLGQHKGPIFALKWNKKGNFILSAGVDKTTIIWDAHTGEAKQQFPFHSAPALDVDWQSNNTFASCSTDMCIHVCKLGQDRPIKTFQGHTNEVNAIKWDPTGNLLASCSDDMTLKIWSMKQDNCVHDLQAHNKEIYTIKWSPTGPGTNNPNANLMLASASFDSTVRLWDVDRGICIHTLTKHQEPVYSVAFSPDGRYLASGSFDKCVHIWNTQTGALVHSYRGTGGIFEVCWNAAGDKVGASASDGSVCVLDLRK [chain 1 G70D] it was around 0.07.

In another assay the parent is B1. Put plainly: co-immunoprecipitation, mass spectrometry; TBLR1-null Flp-In T-REx 293 cells; n = 3 independent transfections; read off a plot.
As to chain 1 MSISSDEVNFLVYRYLQESGFSHSAFTFGIESHISQSNINGALVPPAALISIIQKGLQYVEAEVSINEDDTLFDGRPIESLSLIDAVMPDVVQTRQQAYRDKLAQQQAAAAAAAAAAASQQGSAKNGENTANGEENGAHTIANNHTDMMEVDGDVEIPPNKAVVLRGHESEVFICAWNPVSDLLASGSGDSTARIWNLSENSTSGSTQLVLRHCIREGGQDVPSNKDVTSLDWNSEGTLLATGSYDGFARIWTKDGNLASTLGQHKGPIFALKWNKKGNFILSAGVDKTTIIWDAHTGEAKQQFPFHSAPALDVDWQSNNTFASCSTDMCIHVCKLGQDRPIKTFQGHTNEVNAIKWDPTGNLLASCSDDMTLKIWSMKQDNCVHDLQAHNKEIYTIKWSPTGPGTNNPNANLMLASASFDSTVRLWDVDRGICIHTLTKHQEPVYSVAFSPDGRYLASGSFDKCVHIWNTQTGALVHSYRGTGGIFEVCWNAAGDKVGASASDGSVCVLDLRK [chain 1 G70D], the screen value is around 1.9 log2.
